Tests used:
Experiment in all cases: SPR, antibody captured, C2 as analyte;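 also: biacore SPR at 37 °C, anti-C2 mAbs captured via goat anti-human IgG on CM5 chips, double-referenced sensorgrams fit to a 1:1 kinetic or steady-state model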
[1] = target: T1, human C2 E645A (human, UniProt P06681 21-752)
T1 sequence: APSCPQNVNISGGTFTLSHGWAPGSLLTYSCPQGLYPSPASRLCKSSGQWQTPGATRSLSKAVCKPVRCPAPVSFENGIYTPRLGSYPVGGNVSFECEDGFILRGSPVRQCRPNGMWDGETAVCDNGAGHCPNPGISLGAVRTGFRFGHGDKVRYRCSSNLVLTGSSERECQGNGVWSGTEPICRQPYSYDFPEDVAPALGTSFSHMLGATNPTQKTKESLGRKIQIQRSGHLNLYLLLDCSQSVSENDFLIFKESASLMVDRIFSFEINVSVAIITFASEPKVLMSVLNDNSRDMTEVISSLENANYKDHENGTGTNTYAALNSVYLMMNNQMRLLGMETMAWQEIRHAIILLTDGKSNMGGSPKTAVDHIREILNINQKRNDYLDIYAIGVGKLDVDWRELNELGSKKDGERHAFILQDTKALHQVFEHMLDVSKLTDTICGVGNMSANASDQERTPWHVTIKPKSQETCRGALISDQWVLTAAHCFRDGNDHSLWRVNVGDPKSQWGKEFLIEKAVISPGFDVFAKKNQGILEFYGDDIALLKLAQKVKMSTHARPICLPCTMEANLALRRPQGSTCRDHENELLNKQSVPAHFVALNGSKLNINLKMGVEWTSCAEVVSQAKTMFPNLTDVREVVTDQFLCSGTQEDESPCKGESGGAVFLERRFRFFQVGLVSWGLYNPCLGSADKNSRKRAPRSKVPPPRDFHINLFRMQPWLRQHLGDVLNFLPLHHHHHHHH

[2] = target: T2, human C2 N325A (human, UniProt P06681 21-752)
T2 sequence: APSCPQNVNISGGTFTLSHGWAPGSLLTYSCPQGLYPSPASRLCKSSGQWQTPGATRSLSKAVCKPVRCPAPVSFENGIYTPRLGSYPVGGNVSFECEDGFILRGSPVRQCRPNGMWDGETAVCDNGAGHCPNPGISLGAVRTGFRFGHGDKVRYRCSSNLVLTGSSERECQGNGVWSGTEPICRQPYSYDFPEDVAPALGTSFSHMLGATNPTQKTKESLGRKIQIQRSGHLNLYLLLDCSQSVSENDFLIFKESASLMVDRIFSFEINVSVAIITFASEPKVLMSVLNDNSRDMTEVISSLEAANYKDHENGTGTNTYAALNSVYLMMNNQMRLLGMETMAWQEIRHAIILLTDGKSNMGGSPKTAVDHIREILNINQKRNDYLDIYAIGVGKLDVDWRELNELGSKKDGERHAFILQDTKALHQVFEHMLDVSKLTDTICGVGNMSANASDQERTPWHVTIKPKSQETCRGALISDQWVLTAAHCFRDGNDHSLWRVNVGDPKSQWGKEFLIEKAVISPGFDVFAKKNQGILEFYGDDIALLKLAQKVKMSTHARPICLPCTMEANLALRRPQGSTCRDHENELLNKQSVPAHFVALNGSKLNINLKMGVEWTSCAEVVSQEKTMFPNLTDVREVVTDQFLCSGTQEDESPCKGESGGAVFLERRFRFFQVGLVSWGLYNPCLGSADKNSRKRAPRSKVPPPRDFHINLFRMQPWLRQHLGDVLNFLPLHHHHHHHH

[3] = target: T3, human C2 D710A (human, UniProt P06681 21-752)
T3 sequence: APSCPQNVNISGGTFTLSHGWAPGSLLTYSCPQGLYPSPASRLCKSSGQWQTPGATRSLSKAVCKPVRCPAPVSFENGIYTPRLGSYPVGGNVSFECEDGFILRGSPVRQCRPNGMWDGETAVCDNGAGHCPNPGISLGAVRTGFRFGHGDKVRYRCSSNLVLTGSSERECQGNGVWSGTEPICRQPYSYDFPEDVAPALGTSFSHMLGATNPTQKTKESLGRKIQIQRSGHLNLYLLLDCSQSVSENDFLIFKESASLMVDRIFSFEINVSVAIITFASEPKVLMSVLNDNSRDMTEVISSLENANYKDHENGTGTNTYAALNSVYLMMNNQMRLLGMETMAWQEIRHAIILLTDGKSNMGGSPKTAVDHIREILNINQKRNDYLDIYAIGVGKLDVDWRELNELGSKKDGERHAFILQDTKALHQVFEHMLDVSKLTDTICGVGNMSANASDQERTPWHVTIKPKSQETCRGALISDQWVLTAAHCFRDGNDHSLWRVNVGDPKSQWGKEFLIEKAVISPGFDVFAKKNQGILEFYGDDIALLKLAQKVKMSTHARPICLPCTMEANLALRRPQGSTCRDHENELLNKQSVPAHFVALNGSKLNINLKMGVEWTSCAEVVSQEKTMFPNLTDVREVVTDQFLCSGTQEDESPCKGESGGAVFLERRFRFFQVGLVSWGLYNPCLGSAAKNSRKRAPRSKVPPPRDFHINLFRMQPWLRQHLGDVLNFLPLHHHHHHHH

[4] = target: T4, human C2 D269A (human, UniProt P06681 21-752)
T4 sequence: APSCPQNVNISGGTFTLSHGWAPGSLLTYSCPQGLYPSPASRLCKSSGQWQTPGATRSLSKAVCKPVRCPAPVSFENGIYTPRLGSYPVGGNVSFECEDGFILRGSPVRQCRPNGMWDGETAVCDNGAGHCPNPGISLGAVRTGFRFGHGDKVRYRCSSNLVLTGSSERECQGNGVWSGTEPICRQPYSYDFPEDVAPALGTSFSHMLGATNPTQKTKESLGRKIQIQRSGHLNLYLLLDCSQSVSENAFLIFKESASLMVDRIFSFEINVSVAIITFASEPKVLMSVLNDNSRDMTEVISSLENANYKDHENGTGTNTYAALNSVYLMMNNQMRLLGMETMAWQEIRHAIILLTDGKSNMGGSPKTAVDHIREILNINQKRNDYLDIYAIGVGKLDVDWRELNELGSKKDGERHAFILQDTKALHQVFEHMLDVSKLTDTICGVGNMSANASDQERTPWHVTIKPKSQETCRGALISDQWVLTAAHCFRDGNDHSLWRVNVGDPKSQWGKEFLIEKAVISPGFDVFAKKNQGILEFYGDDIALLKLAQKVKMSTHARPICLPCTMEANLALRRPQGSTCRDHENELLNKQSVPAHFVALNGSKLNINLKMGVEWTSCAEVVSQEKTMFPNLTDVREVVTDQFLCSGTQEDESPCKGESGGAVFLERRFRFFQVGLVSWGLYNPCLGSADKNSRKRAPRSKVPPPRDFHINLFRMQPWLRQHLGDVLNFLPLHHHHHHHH

B1: RF16-226 (antibody, human IgG4 S228P, lambda)
heavy: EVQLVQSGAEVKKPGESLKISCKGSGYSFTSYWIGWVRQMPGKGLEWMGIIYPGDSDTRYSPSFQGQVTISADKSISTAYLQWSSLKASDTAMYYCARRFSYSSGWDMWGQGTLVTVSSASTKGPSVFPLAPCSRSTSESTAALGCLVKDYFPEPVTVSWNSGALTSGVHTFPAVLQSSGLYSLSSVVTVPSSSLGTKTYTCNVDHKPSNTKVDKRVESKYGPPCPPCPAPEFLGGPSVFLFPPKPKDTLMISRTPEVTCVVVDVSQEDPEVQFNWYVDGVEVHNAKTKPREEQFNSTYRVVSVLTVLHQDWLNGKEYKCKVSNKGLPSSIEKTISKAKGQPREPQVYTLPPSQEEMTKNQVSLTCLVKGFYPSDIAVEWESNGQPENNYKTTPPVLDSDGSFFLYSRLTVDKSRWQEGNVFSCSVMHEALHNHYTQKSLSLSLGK
light: SYELTQPPSVSVSPGQTARITCSGDALTSKYVAWYQQKSGLAPLLVIYEDTRRPSGIPAKFSGSSSGSVATLTISGAHGDDEADYYCYSTDASGHQRVFGGGTKLTVLSQPKAAPSVTLFPPSSEELQANKATLVCLISDFYPGAVTVAWKADGSPVKAGVETTKPSKQSNNKYAASSYLSLTPEQWKSHRSYSCQVTHEGSTVEKTVAPTECS
notes: pH-dependent anti-C2 antibody from a phage display library; also called WT
B1 gave a Kd [1] of 14 nM, a Kd [2] of 51.3 nM and a Kd [3] of 97.4 nM. The Kd [4] was 13.1 nM.
